# Assay results reported in JP2019026625A (dated 2019).
# T1: FLAGタグとイヌCD20の融合タンパク (Jurkat/cCD20 に過剰発現) (イヌ (dog), UniProt Q3C2E2 1-297)
# T1 construct: whole, on cells; Overexpressed in Jurkat cells by retroviral transduction (pMx-IP); Used whole on cells for flow cytometry and as 1% NP40 cell lysate for immunoprecipitation; also called canine CD20-FLAG; not shown: FLAG tag added at the C-terminus
# T1 sequence (looked up): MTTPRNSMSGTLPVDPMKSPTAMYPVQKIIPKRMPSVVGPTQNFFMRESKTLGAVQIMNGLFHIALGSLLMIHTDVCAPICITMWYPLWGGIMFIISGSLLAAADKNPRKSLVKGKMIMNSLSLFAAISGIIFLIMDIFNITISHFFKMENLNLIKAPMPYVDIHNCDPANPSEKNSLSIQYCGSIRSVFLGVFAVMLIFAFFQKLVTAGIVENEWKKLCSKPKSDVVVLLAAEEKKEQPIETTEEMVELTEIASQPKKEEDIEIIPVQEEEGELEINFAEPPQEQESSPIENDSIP
# Target: T1, FLAGタグとイヌCD20の融合タンパク (Jurkat/cCD20 …)
# Assay: flow cytometry on Jurkat/cCD20 cells, secondary antibody
binder,measurement,value
"4E1-7抗体 (イヌCD20に対するラットモノクローナル抗体) (antibody, V domains shown, also called 4E1-7 antibody) VH: EVQLVESGGGLVQPGASLKLSCVASGFTFNDYWMSWVRQTPGKTMEWIGDIKYDGSYTNYAPSLKNRFTISRDNAKSTLYLQMSNVRSEDTATYYCTREAYYYSGDYWGQGVMVTVSS VL: DIVLTQSPALAVSLGQRATISCKTNQNVDYYGNSYMHWYQQKPGQQPKLLIYLASNLASGIPARFSGRGSGTDFTLTIDPVEADDTATYYCQQSRNLPYTFGAGTKLELKR",binding result,binds
